± gives the standard deviation of the averaged measurements.
Assay: total protein half-life in vivo (active degradation + dilution); higher = more stable protein
[1] = E. coli NCM3722 delta-clpP delta-lon delta-hslV, growth: N-lim chemostat, doubling time 6 h
[2] = E. coli NCM3722 delta-clpP, growth: N-lim chemostat, doubling time 6 h
[3] = E. coli NCM3722 delta-hslV, growth: N-lim chemostat, doubling time 6 h
[4] = E. coli NCM3722 delta-lon, growth: N-lim chemostat, doubling time 6 h
[5] = E. coli NCM3722 delta-smpB, growth: N-lim chemostat, doubling time 6 h
[6] = wild type E. coli NCM3722, growth: C-lim chemostat, doubling time 3 h
[7] = wild type E. coli NCM3722, growth: C-lim chemostat, doubling time 6 h
[8] = wild type E. coli NCM3722, growth: C-lim chemostat, doubling time 12 h
[9] = wild type E. coli NCM3722, growth: N-lim chemostat, doubling time 6 h
[10] = wild type E. coli NCM3722, growth: N-lim chemostat, doubling time 12 h
[11] = wild type E. coli NCM3722, growth: P-lim chemostat, doubling time 6 h
[12] = wild type E. coli NCM3722, growth: P-lim chemostat, doubling time 12 h

Sequence | total protein half-life in vivo [1] | total protein half-life in vivo [2] | total protein half-life in vivo [3] | total protein half-life in vivo [4] | total protein half-life in vivo [5] | total protein half-life in vivo [6] | total protein half-life in vivo [7] | total protein half-life in vivo [8] | total protein half-life in vivo [9] | total protein half-life in vivo [10] | total protein half-life in vivo [11] | total protein half-life in vivo [12]
MTQTYNADAIEVLTGLEPVRRRPGMYTDTTRPNHLGQEVIDNSVDEALAGHAKRVDVILHADQSLEVIDDGRGMPVDIHPEEGVPAVELILCRLHAGGKFSNKNYQFSGGLHGVGISVVNALSKRVEVNVRRDGQVYNIAFENGEKVQDLQVVGTCGKRNTGTSVHFWPDETFFDSPRFSVSRLTHVLKAKAVLCPGVEITFKDEINNTEQRWCYQDGLNDYLAEAVNGLPTLPEKPFIGNFAGDTEAVDWALLWLPEGGELLTESYVNLIPTMQGGTHVNGLRQGLLDAMREFCEYRNILPRGVKLSAEDIWDRCAYVLSVKMQDPQFAGQTKERLSSRQCAAFVSGVVKDAFILWLNQNVQAAELLAEMAISSAQRRMRAAKKVVRKKLTSGPALPGKLADCTAQDLNRTELFLVEGDSAGGSAKQARDREYQAIMPLKGKILNTWEVSSDEVLASQEVHDISVAIGIDPDSDDLSQLRYGKICILADADSDGLHIATLLCALFVKHFRALVKHGHVYVALPPLYRIDLGKEVYYALTEEEKEGVLEQLKRKKGKPNVQRFKGLGEMNPMQLRETTLDPNTRRLVQLTIDDEDDQRTDAMMDMLLAKKRSEDRRNWLQEKGDMAEIEV | 5.85 ± 0.4 h | 6.09 ± 0.22 h | 5.29 ± 1.9 h | 4.41 ± 0.076 h | 3.56 ± 0.24 h | 2.68 ± 0.1 h | 4.78 ± 0.23 h | 7.42 ± 0.43 h | 3.79 ± 0.16 h | 5.867 ± 0.054 h | 3.96 ± 0.39 h | 8.4 ± 0.31 h
MTQVAKKILVTCALPYANGSIHLGHMLEHIQADVWVRYQRMRGHEVNFICADDAHGTPIMLKAQQLGITPEQMIGEMSQEHQTDFAGFNISYDNYHSTHSEENRQLSELIYSRLKENGFIKNRTISQLYDPEKGMFLPDRFVKGTCPKCKSPDQYGDNCEVCGATYSPTELIEPKSVVSGATPVMRDSEHFFFDLPSFSEMLQAWTRSGALQEQVANKMQEWFESGLQQWDISRDAPYFGFEIPNAPGKYFYVWLDAPIGYMGSFKNLCDKRGDSVSFDEYWKKDSTAELYHFIGKDIVYFHSLFWPAMLEGSNFRKPSNLFVHGYVTVNGAKMSKSRGTFIKASTWLNHFDADSLRYYYTAKLSSRIDDIDLNLEDFVQRVNADIVNKVVNLASRNAGFINKRFDGVLASELADPQLYKTFTDAAEVIGEAWESREFGKAVREIMALADLANRYVDEQAPWVVAKQEGRDADLQAICSMGINLFRVLMTYLKPVLPKLTERAEAFLNTELTWDGIQQPLLGHKVNPFKALYNRIDMRQVEALVEASKEEVKAAAAPVTGPLADDPIQETITFDDFAKVDLRVALIENAEFVEGSDKLLRLTLDLGGEKRNVFSGIRSAYPDPQALIGRHTIMVANLAPRKMRFGISEGMVMAAGPGGKDIFLLSPDAGAKPGHQVK | 4.5 ± 0.63 h | 4.18 ± 0.33 h | 4.16 ± 0.055 h | 4.3651 ± 0.0038 h | 4.17 ± 0.25 h | 3.09 ± 0.24 h | 5.54 ± 0.16 h | 9.62 ± 0.28 h | 4.1 ± 0.34 h | 6.3 ± 0.071 h | 5.51 ± 0.33 h | 11.4 ± 0.34 h
MTRAVKPRRFAIRPIIYASVLSAGVLLCAFSAHADERDQLKSIQADIAAKERAVRQKQQQRASLLAQLKKQEEAISEATRKLRETQNTLNQLNKQIDEMNASIAKLEQQKAAQERSLAAQLDAAFRQGEHTGIQLILSGEESQRGQRLQAYFGYLNQARQETIAQLKQTREEVAMQRAELEEKQSEQQTLLYEQRAQQAKLTQALNERKKTLAGLESSIQQGQQQLSELRANESRLRNSIARAEAAAKARAEREAREAQAVRDRQKEATRKGTTYKPTESEKSLMSRTGGLGAPRGQAFWPVRGPTLHRYGEQLQGELRWKGMVIGASEGTEVKAIADGRVILADWLQGYGLVVVVEHGKGDMSLYGYNQSALVSVGSQVRAGQPIALVGSSGGQGRPSLYFEIRRQGQAVNPQPWLGR | 6.31 ± 0.39 h | 6.29 ± 0.37 h | 6.76 ± 0.51 h | 7.049 ± 0.041 h | 6 ± 0.41 h | 3.18 ± 0.08 h | 5.778 ± 0.045 h | 11.3 ± 0.53 h | 6.31 ± 0.22 h | 13.1 ± 0.39 h | 5.92 ± 0.37 h | 12.9 ± 0.95 h
MTRLASRFGAANLIRRDRPLTREELFRVVPSVFSEDKHESRSERYTYIPTISLLDSLQREGFQPFFACQTRVRDPGRREHTKHMLRLRREGQITGKQVPEIILLNSHDGTSSYQMLPGLFRAVCQNGLVCGESFGEVRVPHKGDVVSQVIEGAYEVLGIFDRVEEKRDAMQSLLLPPPAQQALAKAALTYRFGEDHQPVTESQILSPRRWQDESNDLWTTYQRIQENLIKGGLSGRNAKGGRSHTRAVRGIDGDVKLNRALWVMAEALLTQLQ | 5.7 ± 0.74 h | – | – | – | – | – | 3.1 h | – | 4.67 h | – | 3.42 h | –

From the supplement of paper PMC11246515
